Experiment: yeast display, Sf9 membrane polyspecificity reagent, FACS + sequencing; frameworks hold sequencing errors
Summary of the method: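 A synthetic nanobody library was expressed on Saccharomyces cerevisiae BJ5465 by galactose induction for 36–48 hours. The library was stained for 1 hour at 4 °C with 10% biotinylated, detergent-solubilized Sf9 membrane reagent and enriched with streptavidin microbeads before FACS. Low and high (top ~1%) gates were set on anti-HA fluorescence for expression and streptavidin fluorescence for reagent binding, and each polyreactivity label reflects the gate of origin.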

| Sequence | polyreactivity (PSR sort gate) |
| --- | --- |
| QVQLQESGGGLVQAGGSLRLSCAASGNIFDADIMGWYRQAPGKERELVASITDGGSTNYADSVKGRFTISRDNAKNSVYLQMNSLLPEDTAVYYCAAIAYPDIPTYFDYDSDYFYWGQGTQVTVSS | high polyreactivity |
| QVQLVESGGGLVQAGGSLRLSCAASGTTFDSYAMGWYRQAPGKERELVPAITSSASTNYADSVKGRFTISRDNAKNTVYLQMNSLKPEDNAVYYCYADAYRLSFGGFTSDDEFVYWGLGTQVTVSS | high polyreactivity |
| QVQLVESGGGLVQAGGSLRLSCAASGSIFWRYDMGWLDRRLGKKGSSLPLLLVLVTTRTTQTPVKGRFTISRDNAKNTVYLQMNSLKPEDTAVYYCAADLRASGLKYEYWGQGTQVTVSS | low polyreactivity |
| QFQLVESGGGLVQAGGSLRLSCAASGSTFNYNAMGWYRQAPGIERELVAAISSSAGSTYYADSVKGRFTISRDNAKNTVYLQMNILKPEDTAVYYCANGGSSRVRTEGDYWGQGTQVTVSS | low polyreactivity |
| QVQLVESGGGLVQAGGSLRLSCAASGRIFARNAMGWSRQAPGKERELVAAISGGGNTYADSVKGRFTISRDNAKNTVYLQMNSLKPEDTAVYYCARVVHFRGVRYDYWGQGTQVTVSS | high polyreactivity |
| QVQLVESGGGLVQAGGSLRLSCAASGSTFFRYAMGWYRQAPGKEREFVAAISKRGGSTHYADSVQGRFTLSRDNAKNTVYLQMNSLKPEHTAVYYCAASSFTSSYNYWGQGTQVTVSS | high polyreactivity |
| QVQHVESGGGLVQAGGSLRLSCAASGSIFGRYVMGRYRQAPGKESEFVAAISRSGGRTYYADSVKGRFTISRDNAKNTVYLQMNSLKPEDTAVYYCNAVGAAGPYDYWGQGTQVTVSS | high polyreactivity |
| QVQLVESGGGLVQAGGSLRLSCAASGRTFYGNAMGWYRQAPGKERELVAAINYSGGRTFYADSVKGRFTISRDNAKNTVYLQMNSLKPEDTAVYYCAAQDTYYGLFSYWIPWSGYWGQGTQVTVSS | high polyreactivity |
| QVQIEESGGCLVQAGGSLRLSCAASGNTFFKYNMGWSRQAPRKERELVAAITWSGGSTSYADSVKGRFTISRDNAKNTVYLQMNSLKPEDTAVYYCAAAWSHSRWDTHDYWGQGTQVTVSS | low polyreactivity |
| QVQLVESGGGLVQAGGSLRLSCAASGNTFREYGMGWYRQAPGKERELVAAISSTGSTNYADSVKGRFTISRDNAKNTVYLQMNSLKPEDTAVYYCNRDRVWGSGVRTRGDYWGQVTQVTVSS | low polyreactivity |
| QVQLVESGGGLVQAGGSLRLSCAASRSTIPSYAMGWSRQAPGKERELVASITYSDGTTRYADSVKGRFTISRDNAKNTVYLQMNSLKPEDTAVYYCNAVYYRDGMDYWGQGTQVTVSS | low polyreactivity |
| QVQLVESGGGLVQAGGSLRLSCAASGSIFWGNAMGCYRQAPGKERELVASISDSGGSTYADSVKGRFTISRDNAKNTVYLQMNSLKPEDTAVYYCAADDWYSAGIRNWYYGGYDYWGQGTQVTVSS | low polyreactivity |
| QVQLVESGGGLVQAGGSLRLSCAASGSIFYWYAMGWYRQAPGKERELVAAITRSAGTTYYADSVKGRITISRDNAKNTVYLQMNSLKPEDTAVYYCAATYPRPYGSRPRYEYWGQGTQVTVSS | high polyreactivity |
| QVQLVESGGGLVQAGGSLRLSCASSGNTFYGYAMGWYRQAPGKERELVASITLSGDSTYYADSVKGRFTISRDNAKNTVYLQMNSLKPEDTAVYYCAGVYTYPLGYYHYTYDYWGQGTQVTVSS | low polyreactivity |
| QVQLVESGVGLVQAAGSLRLSCAASGSTFSSYAMGWYRQAPGKERELVAVISSRGSRTYYADSVKGRFTNSRDNAKNSVYLLMNSLKPEDTAVYYCAARAVKQYGNSYESWGQGTQVTVSS | high polyreactivity |
| QVQLVESGGGLVQAGGSLRLSCAASGSIFDYYDMGWYRQAPGKERELVAAINWSGGITYYADSVKGRFTISRDNAKNTVYLQMNSLKPEDTAVYYCAADWYQWVYSSSITSFDYWGQGTQVTVSS | low polyreactivity |
| QVQHEESGGGLVQAGGSLRLSCAASGRIFGTDAMGWFRQAPGKDRELVAAIRSSGDSTYYADSVKGRFTISRDNAKNTVYLQMNSLKPEDTAVYYCARTLRYYRPVLLVYRFGYWGQGTQVTVSS | high polyreactivity |
| QVQLVESGGGLVQAGGSLRLSCAASGYTFRSNVMGWYRQAPGKERELVAAISRGTRTKYADSVKGRFTISRDNAKNTVYLQMNSLKPEDTAVYYCAADTGTGLDWGQGTQVTVSS | high polyreactivity |
| QVQLVESGGGLVQAGGSLRLSCAASGSTWVYAMGWYRQAPGKERELFAAITVSGGSTYYADSVKGRFTISRDNAKNTVYLQMNSQKPEDPAVYYCAAYDSYRKFKYLGQGTQVTVSS | high polyreactivity |
| QVQLVESGGGIVQAGGSLRLSCAASGSIFSKYAMGWYRQAPGKERELVATISSSVGSTYYADSVKGRFTISRDNAKNTVYLQMNSLKPEDTAVYYCAARPDYEYGSHYRGGYWGQGTQVSVSS | low polyreactivity |
| QVQLVESGGGLVQAGGSLRLSCAASGITFFYNAMGWSRQAPGKERELVADITNSGSTYYADSVKVRFTISRDNAKNTVYLQMNSLKPEDTAVYDCAAGQAYDFFVYYPDDYWGQGTQVTVSS | low polyreactivity |
| QVQLGESGGGLLQAGGSLRLSCAASGRTISKNGMGWYRQAPGKERELVAAISGSGGTTYYADSVKGRFTISRDNAKNTVYLQMNSLKPEDTAVYYSADRYTVSRSGYWGLGTQVTVSS | high polyreactivity |

| Sequence | polyreactivity (PSR sort gate) |
| --- | --- |
| QVQLVESGGGLVQAGGSLRLICAASGSTFYFYAMGWYRQAPGKERELVAVISSGGSTYYADSVKGRFTISRDNAKNTVYLQMNSLKPEDTAVYYCAAYYYYTLYYRYDYWGQGTQVNVSS | low polyreactivity |
| QVQLVESGGGLVQAGGSLRLSCAASGSTLYRYAMGWYRQAPGKERELVAAISSSGGSTYYADSVKGRFTISRDNAKNTVYLQMNSLKPEDTAVYYCAAYFSTAPKSQYKLDYWGQGTQVTVSS | high polyreactivity |
| QVQLVESGGGLVQAGGSLRLSSAASAFIFSSYAMGWYRQAPWKERELVAAITRNGGSTYYADSVKGRFTISRDNAKNTVYLQMNSLKPEDTAVYYCAAQRWRGVGRFDYWGQGTQVTVSW | high polyreactivity |
| QVQHVESRGGLVQAGGSLRLSCAASGIIFRYAMGWYRQAPGKERELVAAIRKSDGSTYYADSVKGRFTISRDNAKNTFYLQMNSLKPEDTAVYYCATDIGYGNRKGFYYWGQGSQVTVSS | high polyreactivity |
| QVQGVESGGGLVQAGGSLRLSCAASGLTFKENVMGWYRKAPGKERELVAAISTGASTYYADSVKGRFTISRDNANNTVYLQMNSLKPEDTAVYYCAAERWAQGYTYEYWGQGTQVTVSS | high polyreactivity |
| QVQLVESGGGLVQAGGSLRLSCAASGSNYYVYPMGWYRQAPGKERELVATISTGGSTYYADSVKGRFTISRDNAKNTVYLQMNSLKPEDTAVYYCNAQITPRYWGGYDSWGQGTQVTVSS | low polyreactivity |
| QVQLVESGGGLVQAGGSLRLSCAASGSTFRIYVMGWYRQAPGKEREFVAAISRGGGSTYYADSVKGRFTISRDNAKNTVYLQMNSLKPVDTAVYYCAAVTRDYGSRSGLDYWGQGTQVTVSS | high polyreactivity |
| QVKLVESGGGLVQAGGSLRLSCAASGSTLYQYTMGWYRQAPGKERELVAGISRRGGSTYYAYSVKGRFTISRDNAKNTVYLQMNSLKPEDTAVYYCAKRPHYIAWYGYNGDYWGQGTQVTVSS | high polyreactivity |
| QVQLVESGGGLVQAGGSLRLSCAASGTIFLANAMGWYRQAPEKERELVAAINSGDNSYYADSVKGRFTISRDNAKITVYLQINSLKPEDTAVYYCAAEYTGYFYAYEYWGQGSQVTVSS | high polyreactivity |
| QVQLVESGGGLVQAGGSLRLSCAASGRTFRFNAMGWYRQAPGKERELVAAISSGGNTYYADSVKGRFTISRDNAKNTVYLQMNSLKPEDTAVYYCNTVYLYGTHDYWGQGTQVTVSS | low polyreactivity |
| QVQLVDSGGGLVQAGGSLRLSCAASGLSFLVNAMGWYRQAPGKERELVAAIDRDGGITYADSVKGRFTISRDNAKNTVYLQMNSLKPDDTAVSYCAADPSSYGRFTYDYWGQGTQVNVSS | low polyreactivity |
| QVQLVESGGGLVQAGGSLRLSCAASGFTFRGYAMGWYRQAPGKERELVAAISGSGGRTHYADSVKGRFTISRDNAKNTVYLQMNSLKPEDTAVYYCNAVPYSRPLGNNYWGQGTQVTVSS | high polyreactivity |
| QVQLQESGGGLVQAGGSLRPSCAASGNIFVPFKMGWYRLAPGKERELVASINRGSTTNYADSVKGRFTISRDNAKNTVYLQMISLKPEDTAVYYCAAIAYPDIPTYLDYDSDYFYWDQGTQVTVSS | high polyreactivity |
| QVQLVESGGGLVQAGGSLRLSCAASGSTIEDYAMGWYRQAPGKERELVAAITSGDSTNYADSVKGRFTISRDNAKNTVYLQMNSLKPEDTAVYYCAARLRYSFWYWDDYWGQGTQVTVSS | high polyreactivity |
| QVQLVESGGGLVQAGGSLRLSCAASGSIFSWYAMGWYRQAPGKERELVATITWRGGSTYYADSVKGRFTISRDNAKNTVYLQMNSLKPEDTAVYYCAARVPDPYTSYRYPPYYYWGQGTQVTVSS | low polyreactivity |
| QVQLVESGGRLVQAGGSLRLSCAASGYIFSRNAMGSYRQAPGKERELVATISRGGSTYYGDSVKGRFTISRDNDKNTVYLQMNSLKPEDTAVYFCAATVVYWRSKSSVRRYDYWGQGTQVTVSS | high polyreactivity |
| QVQLVESGGGLVQAGGSLSLSCAASGRTFGLNVMGWYRQAPGKERELVATISGVGSTNYADSVKWRFTISRDNAKNTVYLQMNSLKPEDTAVYYCAKDPHVGRWWDLYSPYYSWGQGTQVTVSS | low polyreactivity |
| QVQLVESGGGLVQAGGSLRLSCAASGRTFPRNGMGWYRQAPGKERELVAAIRYSGGSTYYADSVKGRFTISRDNAKNTVYLQMNSLKPEDTAVYYWAAGRNRAGGFGSWGQGTQVTVSS | high polyreactivity |
| QVQLVESGGGLVQAGGSLRLSCAASGSTFKWYAMGWYRQAPGKERELVAAISQSGSRTYYADSVKGRFTISRDNAKNTVYLQMNSLKPEDTAVYYCNARRYIYNYDYWGQGTQVTVSS | high polyreactivity |
| QVQLVESGGGLGQAGGSLRLSCAASGFTYYYYAMGWYIQAPRKDRELVAAISGGGGSTYYADSVKGRFTLSRDNAKNTVYLQMNSLKQVDTAVYYCAAVGSWRYYYDYDYWGQGTQVNVSS | high polyreactivity |
| QVQLVESGGGLVQAGGRLRLSCAAYGSIFMYYAMGWYRQSPVKERELVAAITRGGSTYYADSVKGRFTISRDNAKNTVYLQMNSLKPEDTAVYYCAATTFRSVGYDYWGQGTQVTVSS | low polyreactivity |
